Assay results reported in patent publication US8598081B2, “Specific delivery of agrochemicals” (priority 2010, dated 2013).

Test system: grass leaf discs
Test: Leaf disc binding assay with VHH-coupled microcapsules, grass
Parameters: species or system Lollium perenne
Conditions: Uvitex microcapsules
Procedure: A leaf disc binding assay was used to evaluate the interaction of VHH-coupled microcapsules with potato, grass and azalea leaves. ø 8 mm leaf discs were sampled from the leaves of potato pot plants (variety Desiree), from the leaves of greenhouse-grown Lollium perenne and from the leaves of azalea pot plants. Leaf discs were washed three times with PBS. Microcapsules containing lambda cyhalothrin or Uvitex were diluted to appropriate densities in 1% skimmed milk in PBS with 0.05%-TWEEN®-20. Microcapsules were added to the leaf discs and settling of microcapsules and binding of targeting agents allowed for 1 hour. Unbound microcapsules were removed by washing three to five times with PBS with 0.05%-TWEEN®-20.
Leaf discs with Uvitex microcapsules were analyzed for bound microcapsules on a macrozoom microscope system (Nikon). Microcapsules were counted using Volocity image analysis software (Perkin Elmer). A DAPI filter was used to visualize Uvitex microcapsules. Controls for Uvitex microcapsules included blank microcapsules to which no VHH were coupled and microcapsules to which unrelated VHH were coupled.

B1: Microcapsules containing uvitex OB VHH 3E6: polyurea microcapsules containing the fluorescent tracer Uvitex OB, coupled with (monovalent) VHH 3E6 (conjugate)
VHH: QVQLQESGGGLVQPGGTLSLSCAASGFNVRWYGMGWFRQAPGKEREGVACISALQETTAYADSVKGRFTLSRDNPKNTLSLQMNNLQPEDTGVYYCATTDCDDSSRMTYTSYLGQGTQVTVSS
modifications: left off: small tags and cut ends
notes: polyurea microcapsules containing the fluorescent tracer Uvitex OB, coupled with (monovalent) VHH 3E6
  more microcapsules bound to leaf surfaces compared to blank microcapsules: three-fold
  more microcapsules bound to leaf surfaces compared to microcapsules coupled with unrelated VHH: two-fold
